The values that follow come from paper PMC11282193, “Mst1-mediated phosphorylation of FoxO1 and C/EBP-β stimulates cell-protective mechanisms in cardiomyocytes”.

For one data set, the target named is FoxO1 (UniProt G3V7R4). As to the kind of experiment: C/EBP-β IP, FoxO1 immunoblot. Particulars: reference: C/EBP-β-WT; sites T299.
In another data set the target is C/EBP-β (UniProt P21272). Nature of the data set: co-immunoprecipitation from cardiomyocytes. The settings on record: reference: FoxO1(S209A); sites S215,S218,T228,S232,S243.
In the next data set the target is FoxO1-WT (mouse, UniProt Q9R1E0 1-652). As to the kind of experiment: pull-down; without Mst1; EMSA: 20 mM Tris-HCl pH 8.0, 40 mM KCl, 5% glycerol, 0.4 mM DTT, 0.2 mM EDTA, 2 mM MgCl2, 1 mg/ml BSA, 20 ng poly(dI-dC), on ice 15 min, 50 ng protein; pull-down (1x buffer): 10 mM HEPES pH 8, 50 mM KCl, 2.5 mM MgCl2, 1 mM EDTA, 1 mM DTT, 0.1% IGEPAL, 4 C 2 h. Particulars: protein: recombinant; tags: GST removed by PreScission (general method); label: 5' biotin on sense strand; blunt.
FoxO1-WT, sequence (Q9R1E0 whole entry): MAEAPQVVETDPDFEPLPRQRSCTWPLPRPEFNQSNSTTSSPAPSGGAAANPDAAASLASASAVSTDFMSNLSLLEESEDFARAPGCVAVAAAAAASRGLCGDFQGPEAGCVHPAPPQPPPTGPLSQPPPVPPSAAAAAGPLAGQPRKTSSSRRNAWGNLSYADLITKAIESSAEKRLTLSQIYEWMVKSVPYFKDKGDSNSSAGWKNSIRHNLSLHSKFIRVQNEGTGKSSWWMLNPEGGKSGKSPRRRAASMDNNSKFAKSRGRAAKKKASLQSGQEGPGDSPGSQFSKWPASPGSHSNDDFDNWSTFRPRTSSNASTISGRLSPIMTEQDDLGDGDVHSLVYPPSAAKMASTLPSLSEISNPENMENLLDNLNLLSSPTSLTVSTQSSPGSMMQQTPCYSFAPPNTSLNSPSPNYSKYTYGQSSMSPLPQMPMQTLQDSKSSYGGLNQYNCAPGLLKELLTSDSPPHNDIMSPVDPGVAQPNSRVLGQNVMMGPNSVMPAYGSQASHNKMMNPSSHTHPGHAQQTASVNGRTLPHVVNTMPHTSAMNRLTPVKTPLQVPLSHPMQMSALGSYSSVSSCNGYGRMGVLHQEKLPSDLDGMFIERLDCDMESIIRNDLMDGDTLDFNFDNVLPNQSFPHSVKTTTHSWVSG

For the molecule “C/EBP-β (from UniProt P17676) C/EBP-β-PR (T299A)”, the “binding against the reference” value with FoxO1 was “weaker”.

Consider “FoxO1 (from UniProt Q9R1E0) FoxO1-PR (six sites to Ala)”, for which the “binding against the reference” value with C/EBP-β is recorded as “lost”.

B1: WT-3xDBE (Biotin-FHRE-wild type) (dsDNA)
DNA 1: CCTTGTTTACGGGTTGTTTACGGGTTGTTTACCC
DNA 2: GGGTAAACAACCCGTAAACAACCCGTAAACAAGG
In the case of B1, in the data set with FoxO1-WT, the binding result is “binds”.

B2: Mt-3xDBE (Biotin-FHRE-mutant) (dsDNA)
DNA 1: ACTTACCCACGAGTTACCCACGAGTTACCCACCA
DNA 2: TGGTGGGTAACTCGTGGGTAACTCGTGGGTAAGT
With B2, in the data set with FoxO1-WT, the binding result is “no binding”.
